Fold binding against the WT needle data for one molecule are collected here from article PMC6957217.

For this test, the target named is Three of the mutant needles, I933A, N937A, and G938A. Kind of test: ELISA; gp37 trimers coated (100 ng/well) overnight at 4°C, casein block, OmpC added (various molar ratios; gp37:OmpC 1:1 for the mutants), 37°C 2 hr, PBS-T washes, bound OmpC detected with mouse anti-OmpC sera and HRP anti-mouse IgG. For orientation: In an ELISA, binding on a coated surface is turned into a signal by an enzyme label.

B1: recombinant OmpC trimer (outer membrane protein C) (natural protein)
chain: AEVYNKDGNKLDLYGKVDGLHYFSDNKDVDGDQTYMRLGFKGETQVTDQLTGYGQWEYQIQGNSAENENNSWTRVAFAGLKFQDVGSFDYGRNYGVVYDVTSWTDVLPEFGGDTYGSDNFMQQRGNGFATYRNTDFFGLVDGLNFAVQYQGKNGNPSGEGFTSGVTNNGRDALRQNGDGVGGSITYDYEGFGIGGAISSSKRTDAQNTAAYIGNGDRAETYTGGLKYDANNIYLAAQYTQTYNATRVGSLGWANKAQNFEAVAQYQFDFGLRPSLAYLQSKGKNLGRGYDDEDILKYVDVGATYYFNKNMSTYVDYKINLLDDNQFTRDAGINTDNIVALGLVYQF
B1: the fold binding against the WT needle was 2 to 3 fold.
